Measurements: the DeepSol protein solubility set

experiment: soluble on expression in E. coli; label from the status in PepcDB or PDB records

Row | Sequence | soluble on expression in E. coli
1 | MGSDKIHHHHHHMTKKLPIGIQTFREIREESYYYVDKTSFALKLAMEGKYYFLSRPRRFGKSLFLDTLAELFAGNEALFHGLYCHDRWDWSVRYPIIRLSFAEGWLESRAQLDKRICWLLEQNQQRLGVTCKQESDIPGSFAELLQNAEAKYGQRCVVLVDEYDKPILDNITEPEIARAMREGLRNLYSVIKGQDAHIRFAFLTGVSKFSKVSIFSGLNNLNDITIDADYSAICGYTDEDVDTVFAPELPGLDRQQIQDWYNGYNWTGQPVYNPFDLLLLFDKREFRAYWFETGTPTFLVDWLMQRGYFTPSLSRQYSSLELLSAFDVDHIEPEALLFQTGYTTLQGVEEYLPGQRIYWLGYPNKEVQISLNNALLPALGIEGQKVLTHRIRLLELLRANNFAGLQQLFTSFFASIPHDWYRNNPIAQYEGYYASVFYSHFAALGLDIVVEDTTHHGRIDMAVTFNANVYLFEFKVVELVPEGHALEQLKTKGYAEKYKIRNEPIYLIGAEFSKDSRSVVAFDVELFA | not soluble
2 | MEYGVLSWWDYGNWIVYVGKRPAVSNNFQTGVEDSANFLLTDSEEEAKTIVEKLKVKYVMTDTLMAEGKFSSITSLAGKEIGEYYEVETVKGDTGLRTVATPKQALLQTQVYKLHKLDGTSLGHFRLVHESAVNSTDDGNSKENTVKVFEYVKGATLEHHHHHH | soluble
3 | MTKKQKEILFCDYFEEWVEVYKVGAIAKITLAKYYNAAKQLRDLCPKLFISDFDRREYQRIINVYAETHEKQTVKDFHHHVKACIKDLFHDGLIDKDPTYRVVIKGAELEHHHHHH | soluble
4 | MAHHHHHHMTSAYRIRDAAPADAGIMVRMLMSLASETENVELDEGEVRRGVTTLFEQGSLGRLYVAEEVPKGDTNIKGPSDGNRSSPQIVGVMTVTYEWSDWRGKLFLWIQSVYIIPSKRKQGIFQKFYDHLIRIMAEDPKYCGLRLAVNSKNEKAIRAYKQVGMKREKYQLMGRMKSKY | soluble
5 | MPKLSIIIPAYNNAHLLPETLDSIFSQDCEPFELIVVDDGSTDNTRDVVEGYGRGIVYLWQENSGGCSKPRNVGIRHATGEYIAMFDSDDIMKPGKVRSQMDFLDRNPDVDFVFTDFCDFRGAEVLASHITTCPIFNSLPKQKVGEDAYVISSTAAYETLLVENFIGGSAMMFRKSLFNEAGPFDETLEVSEDIDFTLRVARTHALGFINRIGHHRRLHDGNMTSKAEKILTRSLRVFGGHLSAPKSSKAQQRLIDKVAGLHGALAYHYRENARYGEALAEYRASLSLRPACLGTYKAMAKLAVMALTSGGKLEHHHHHH | soluble
6 | MVSLSDLASYPICRRCAGRIFAMVGTGLTNLERGSMLEFSIKCEKNDPEFNFADPQNCEICHGIFDKFSVFLSLVEDKLKEIEYSTFVVGSVFPKEWIELENKIQEAFGAHGESIKKEFNREFGKYITAKTGKEYRKEDPDITIAVNVEYEFVNVSIKSLFIYGKYRKYRRDMPQTRWIHKKDGDSIESIIGEAALRIAGGKNYYLHGSGREDVDVRMLGNGREFVIEVEAPIMRTFDLSILSETVNRSMKGVEIFDLSFVDRKTVKEIKEEKHSKVYDCIIEGDTDIDKLKLEEACTEMNGKNIYQRTPLRVAQRRSDLIRTRKIERMELVAVEGKEAEIVVQAEAGTYIKELISGDSGRTNPSLSSKYGSQLNVKELDVIKICRGELEHHHHHH | not soluble
7 | MKLSESRGETEKHRRQQHFEHELKNMISSLTHMGGDKAGPSQYDEEEDGIRVITLSGSNLGATMKTELDNNHGDRDQNGDHELDFLSTYVNSNFQAVNNSIMIGAKYETHDPGVHLDISGDVEKPSVKIPARSSRGKKGKTPARSDRRESEHTN | soluble
8 | DPLQILGQLTGQLEQQQTAPSGTSAKAPPANDQQAEFVASILGDTEDTWKALFAQAGKQYRDPKLVLFSGQVNSACGFASAAVGPFYCPADQRVYLDMSFFREMETRFAAAGDFAQAYVIAHEIGHHVQTLLGVSAKVDAARRAGQRMEGDNGLLVRQELQADCLAGVWAYQAQKRLNWLEPGDVEEALNAANAIGDDRLQQQGRGRVVPDSFTHGTSAQRVRWFKIGFAEGEVNRCDTF | not soluble
9 | MKTIDCRNMACPAPVVTTKRALEEAGGETVRVLVDAGAPRENVARFAANRGFRVAVEEADGGFAITIGSGEGAPSAPAENPARQGRTVMLITSDRLGDGPEDLGRLLMKSFIITLLDQESLPDRMMFLNSGVLLTTEGSEVLQALEQLGNRGVEVLSCGVCLDFFHCKEKLAAGTVTNMFTTAEALLTAGSVIRLLEHHHHHH | soluble
10 | AHHHHHHGSAEMVIPYPHLQRILEKTCELAVTKPMAERMMEIVERKLADLFEVAYENATAENSETIKMRHIPITKGFRSSMNLFRAVIEDENIKIEPILDYVLRKIPADKPLEEEVINELPIITGTLFVLIGRVIKALHPEVRNVYPEHIEEAEKVLDYTL | soluble
11 | MIKTRDQSIFDEMFKRIQSLGFKVYDYKPMTEVPYPFVEMESTDAEYIPNKDDIKGSVELMLSVWGVQKKRKQVSDMASAIFSQALTVESSDVFRWSLNTRQSSIQMLDDTTTVTPLKRAIVTLRFNLR | not soluble
12 | MGGSHHHHHHGMASALLDIECFTYLHRALESSIAPIVIFASNRGNCVIRGTEDITSPHGIPLDLLDRVMIIRTMLYTPQEMKQIIKIRAQTEGINISEEALNHLGEIGTKTTLRYSVQLLTPANLLAKINGKDSIEKEHVEEISELFYDAKSSAKILADQQDKYMK | not soluble
13 | MGSDKIHHHHHHMMQIYLVGGAVRDQLLGLPIKDRDWLVVGSTAEELLSQGYQQVGKDFPVFLNPNTREEYALARTERKSGTGYTGFICDFNPDITLEQDLMRRDLTINAIAQDMAGQYHDPYNGIADLKKGILRHISPAFAEDPLRVLRVARFAARYHQLGFKIAPNTLALMKKIANNGELRQLSPERVWQETEKALHEQDPQVYFAILQKIDALKVLCPEISVFNSDSIQYRSDMTDFVHAMPILKQTTLLTEKTDYHKSAVRFAALCHDVGKALSTANIPPYSHDNKITSIAYLRNVCQRFKVPNYVQELAELTCQYHSHIHHALALHTKTILTLFNKLDVWRKPKRFEELMLVCLADSLTQTEMNYTDYPQYKFLLCLYQAALAVDVQQIISEGFQHKAIRVELDRRREIAIQIKKQQFIEQNLT | not soluble
14 | MFFSFKIDGDELDKRMGGGVYVGQLFTIFGDNSEGKTLLSLRLAYGFLKNGISITYVSSQMPVREFISFSDALGYPVLNSVISGSMLYITPVFMLRRTRRANLDELINNDRIKEKSVLIIDSLNPGMFRDFEINSYMEKLRKFSENRVVIITANQASLDDATVLRINQLSTTIVTLHSKELGGVKRHFIDLVKYPMVVRSIQQSIPFRVEPGRGLIVEISSVS | not soluble
15 | MPQVAKTYESLAREAADNNLDYEEYLLCVLEQEVHQRENNRIQRGIRQAGFPVIKTIESFDFLAIPSLNKPRVLKLMQGEYIRRRENVILIGNSGVGKTHIATALGYEACRQGMKVKFYTAAGLINELLAAQQEYRLNKLEKQWLAPHLVILDELGYVPFSKIGAELLFQFCSSRYERGSLIITTNLEFPRWTEVLGDEQMTAALLDRLTHNAHILNINGESYRFKQALSKQANND | soluble
16 | DGSFQGSVFVAVDIGERKRTEQALRENEQHLKNILDSIHAGILVIDPQDHRIVDANTFALDMIGAPKGLVVDRICHNFVCSAVQGACPITDLLENMDNSERRLLRFDGTSIPILKSVVPVTYQGRKLLIESFID | not soluble
17 | KQPKKSQPDLFYATDGTPILVGKNNLQNDQLTLRTAKKTDYWLHAKDIPGSHVIIRDAHPSEETLTEAALLAAYFSKYRLSSQVPVDYVQVKHVHK | not soluble
18 | MGSDKIHHHHHHMEQLLHYVWKHKIFPLKELKTTTGQQVEVIDTGLANTDAGPDFFNAKLKLDGVLWIGNIEIHERSSDWFKHGHHADAGYNSVILHIASEIDTEISRSNGERIPQIQLICPEAVRTNYKELLETDSYPPCYRIIPSLPPFTAHSWMTALQMERFEQKATLLNERLKRCQGNWEDAFFITLARNFGFGLNGDAFETWAHRLPFRAVDKHRNDLFQIEAIFFGQAGILEDSDGDGYYLRLKKEYTYLQHKFGLIPMDASLWRFLRLRPANFPHIRIAQLACLYHRAYGLLSRIMETETLQGVRDILKGGTSEYWLTHYTFGGSSPSRPKTLSNTSLDLLIINTVVTFLYAYGLHKGNRVLCARAGCFLEELKAENNYITRMWEQCGMKASNAADSQALIQLKKEYCDKKKCLYCRIGYEYLKRS | not soluble
19 | MGSDKIHHHHHHFEEVNTDPDSPTDVPTTNLLAYSLYYTSYRLYDRWFAMDEPMTFCGYASKMTYIDESRYNFRTGVQDTNWEYLYRILNNLKDIEKRATFNETPNMLNVSKVMQVHLMQVATDRWRDVPYTDAAKMTDGILQPKYDKQEDIYPGLLATLKEAADGFADGGSDDLGEGDLLFGGDIEKWQRYCNSMRLRLAMRISEVSPALAKETVEEVMGNPTKYPIMESNDDNAFFWWIGTDPNYYEPMADGYRTRKTEYCAADVIVDHMNTREDPRRSSYFQPTKESVEAGEPKYVGYTIGAKANAVASKYSIWGARFFTDLAGFSPYMRVAEPWFCVAEASMLGWNTGISAEDAYNKAVTYSMEENSVSAEDIADYLANAGKFTNDKKQIYYEEWVAMFKQGMEGWSLYRRTGVPDNLYPAPGRPANYSNHNVPPFRSPYPDKERNLNNANCAPFDAEVVDNLWGKQMWWDTRTGVH | not soluble
20 | MEAEIFPGTIHLIDKPQAIPEAIRLLSASRTIGFDTETRPSFVRGARPSVALMQMSTETDCFLFRLNMIDIPEELQQLLENPGILKVGLSLSDDMTVIRRRKPIEPAGFVELQRLCPAYGIRDASLQKIYAILFGRRISKSQRLTNWEARTLTAAQQSYAALDAWACLRIFNQLMTLPTPTPVQFALL | not soluble
21 | MMTTSLFNNDDLNQLESKGITPEEAMRQVEALRYGFPYPNIIAPASLENGIMRLDEDDKSAYLLEWDRYLNSPNCNVVKFVPASGAASRMFKDLYNFLDADYNEPTTDAEKAFFAHLTRFAFYDSLNETCLRNAWRTVPKLIASKEYKTVVENLLYPKGLNYGNLPKGLLLFHLYGKETRTPTEEHLAEGALYERSGTRQVKVHFTVSPEHIEEFKNNIDKRQRFLEDEYCIRYEVSFSVQDSSTDTLALTPEGELFRLENGELLFRPGGHGALIRNLQETNADIVFIKNIDNVVPDFLKCDTIIYKKLIAGVLVKAREHIFNYLQLLEKPKVVHAQLMEIVDFLRYNFCIEISNIDLMEDKDLLELLRRKLDRPIRVCGMVRNQGEPGGGPFIIREADGSSSLQILESTQIDMSDPQKRAIFEQGSYFNPVDLVCSLRDYKGEPFNLESFVNPKTAFISEKSKDGRKLLALERPGLWNGAMDDWNTIFIEVPISTFAPVKTVNDLLRPEHQPCQS | soluble
22 | MGSDKIHHHHHHMDRRDFFKTVAITGAAMTIQRSEAMEILTQTINKANGDKPDLVAVMGGEPEAMFRRAISELGGMKQFIKPGQKVVVKPNIGWDKVPELAGNTNPKLITEIIKQCFATGAKEVTVFDHTCDDWQKCYKNSGIEAAAKEAGAKVMPAHLESYYKPVDLPKGQKMKKAKIHEAILNCDVWINVPILKNHGGANLTISMKNHMGIVWDRGFFHQNDLQQCIADICTLEKKAVLNVVDAYRIMKTNGPRGRSASDVVLAKGLFISPDIVAVDTAAAKFFNQIREMPLDTVGHLAKGEALKVGTMDIDKLNVKRIKM | not soluble
